Among the data in US5414076 are Foci/3 × 10^4 Cells (PG4 indicator cells) after exposure to GALV (foci/3 × 10^4 cells) values, retold here.

“And” between values parts separate entries of the source, which are not always exact repeats. Equal values may be shown once.

For this experiment, the target named is human GALV receptor protein (gibbon ape leukemia virus receptor) (human).

For the substance gibbon ape leukemia virus, the Foci/3 × 10^4 Cells (PG4 indicator cells) after exposure to GALV (foci/3 × 10^4 cells) was 382 and 1000.
